Key:
[1] = molecular target: the molecule itself; assay: crystal structure; orthorhombic crystal P212121 of AGT-Ma holo, hanging drop, 21 °C, PEG 6K 12%, 0.1 M MES pH 5.0; 1.7 Å; 2 molecules (1 dimer) per asymmetric unit
[2] = molecular target: the molecule itself; assay: crystal structure; crystal P212121 of AGT-Ma-D183N holo, sitting drop, 21 °C, PEG 10K 17%, 0.1 M Bis-Tris pH 5.5, 0.1 M ammonium acetate; 1.8 Å; eight molecules (4 dimers) per asymmetric unit

Protein | binding result [1] | binding result [2]
human alanine:glyoxylate aminotransferase major allele, wild type (enzyme, Lys-209 in Schiff base linkage with PLP (internal aldimine); the linkage is photoreduced and broken in the late dataset, alanine:glyoxylate aminotransferase (AGT), human, major allele; also called AGT-Ma; AGT) MASHKLLVTPPKALLKPLSIPNQLLLGPGPSNLPPRIMAAGGLQMIGSMSKDMYQIMDEIKEGIQYVFQTRNPLTLVISGSGHCALEAALVNVLEPGDSFLVGANGIWGQRAVDIGERIGARVHPMTKDPGGHYTLQEVEEGLAQHKPVLLFLTHGESSTGVLQPLDGFGELCHRYKCLLLVDSVASLGGTPLYMDRQGIDILYSGSQKALNAPPGTSLISFSDKAKKKMYSRKTKPFSFYLDIKWLANFWGCDDQPRMYHHTIPVISLYSLRESLALIAEQGLENSWRQHREAAAYLHGRLQALGLQLFVKDPALRLPTVTTVAVPAGYDWRDIVSYVIDHFDIEIMGGLGPSTGKVLRIGLLGCNATRENVDRVTEALRAALQHCPKKKL | binds | –
human alanine:glyoxylate aminotransferase major allele, pathogenic variant D183N (enzyme, Lys-209 in Schiff base linkage with PLP (internal aldimine), alanine:glyoxylate aminotransferase (AGT), human, major allele, with the pathogenic (primary hyperoxaluria type I) mutation D183N; also called AGT-Ma D183N; AGT-D183N) MASHKLLVTPPKALLKPLSIPNQLLLGPGPSNLPPRIMAAGGLQMIGSMSKDMYQIMDEIKEGIQYVFQTRNPLTLVISGSGHCALEAALVNVLEPGDSFLVGANGIWGQRAVDIGERIGARVHPMTKDPGGHYTLQEVEEGLAQHKPVLLFLTHGESSTGVLQPLDGFGELCHRYKCLLLVNSVASLGGTPLYMDRQGIDILYSGSQKALNAPPGTSLISFSDKAKKKMYSRKTKPFSFYLDIKWLANFWGCDDQPRMYHHTIPVISLYSLRESLALIAEQGLENSWRQHREAAAYLHGRLQALGLQLFVKDPALRLPTVTTVAVPAGYDWRDIVSYVIDHFDIEIMGGLGPSTGKVLRIGLLGCNATRENVDRVTEALRAALQHCPKKKL | – | binds

Source: publication PMC5601474, “Radiation damage at the active site of human alanine:glyoxylate aminotransferase reveals that the cofactor position is finely tuned during catalysis” (Scientific Reports, 2017)
